The series concerns the molecule itself. Briefly: microfluidic denaturing gel electrophoresis (Bioanalyzer); Agilent Bioanalyzer 2100, Protein 80 chip; purified Qβ-wt and Qβ@AncUOX particles; dimer band left by incomplete denaturation.

B1: Qβ capsid protein (coat protein), assembled as virus-like particle (natural protein, Qβ (bacteriophage, as named), UniProt P03615 1-133, looked up)
chain: MAKLETVTLGNIGKDGKQTLVLNPRGVNPTNGVASLSQAGAVPALEKRVTVSVSQPSRNRKNYKVQVKIQNPTACTANGSCDPSVTRQAYADVTFSFTQYSTDEERAFVRTELAALLASPLLIDAIDQLNPAY
notes: also called Qβ CP; CP; source: E. coli BL21 (DE3), co-expressed with Rev-tagged AncUOX from a bicistronic pCDF-1b plasmid; VLPs purified (ammonium sulfate precipitation, n-butanol:chloroform extraction, sucrose density ultracentrifugation)
As a reminder, the stoichiometry N is the number of molecules, sites or subunits per partner or assembly. For the protein B1, the “stoichiometry N” value came out at 2.

Source of the values: PMC10170503, “Oral Delivery of Nanoparticles Carrying Ancestral Uricase Enzyme Protects against Hyperuricemia in Knockout Mice” (Biomacromolecules, 2023).
